# T1: human C2 L279A (human, UniProt P06681 21-752)
# T1 sequence: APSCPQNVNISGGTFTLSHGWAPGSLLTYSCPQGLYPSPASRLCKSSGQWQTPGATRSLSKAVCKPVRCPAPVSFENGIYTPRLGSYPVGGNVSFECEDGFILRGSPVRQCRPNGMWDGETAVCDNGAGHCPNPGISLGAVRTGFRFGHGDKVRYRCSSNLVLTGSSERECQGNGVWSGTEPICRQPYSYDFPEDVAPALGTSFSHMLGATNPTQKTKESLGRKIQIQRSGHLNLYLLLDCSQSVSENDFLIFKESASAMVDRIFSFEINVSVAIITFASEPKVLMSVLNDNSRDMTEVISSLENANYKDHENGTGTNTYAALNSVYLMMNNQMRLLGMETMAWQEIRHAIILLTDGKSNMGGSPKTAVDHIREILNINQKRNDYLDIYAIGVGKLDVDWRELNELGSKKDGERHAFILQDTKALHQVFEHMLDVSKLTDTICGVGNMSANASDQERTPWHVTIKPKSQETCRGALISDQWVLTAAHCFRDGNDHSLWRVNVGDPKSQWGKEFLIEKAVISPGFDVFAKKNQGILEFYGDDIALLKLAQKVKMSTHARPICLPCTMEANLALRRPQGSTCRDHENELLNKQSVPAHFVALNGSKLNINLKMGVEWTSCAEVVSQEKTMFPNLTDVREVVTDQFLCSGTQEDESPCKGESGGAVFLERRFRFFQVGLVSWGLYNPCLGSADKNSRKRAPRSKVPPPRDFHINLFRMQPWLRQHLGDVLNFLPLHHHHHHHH
# T2: human C2 D454A (human, UniProt P06681 21-752)
# T2 sequence: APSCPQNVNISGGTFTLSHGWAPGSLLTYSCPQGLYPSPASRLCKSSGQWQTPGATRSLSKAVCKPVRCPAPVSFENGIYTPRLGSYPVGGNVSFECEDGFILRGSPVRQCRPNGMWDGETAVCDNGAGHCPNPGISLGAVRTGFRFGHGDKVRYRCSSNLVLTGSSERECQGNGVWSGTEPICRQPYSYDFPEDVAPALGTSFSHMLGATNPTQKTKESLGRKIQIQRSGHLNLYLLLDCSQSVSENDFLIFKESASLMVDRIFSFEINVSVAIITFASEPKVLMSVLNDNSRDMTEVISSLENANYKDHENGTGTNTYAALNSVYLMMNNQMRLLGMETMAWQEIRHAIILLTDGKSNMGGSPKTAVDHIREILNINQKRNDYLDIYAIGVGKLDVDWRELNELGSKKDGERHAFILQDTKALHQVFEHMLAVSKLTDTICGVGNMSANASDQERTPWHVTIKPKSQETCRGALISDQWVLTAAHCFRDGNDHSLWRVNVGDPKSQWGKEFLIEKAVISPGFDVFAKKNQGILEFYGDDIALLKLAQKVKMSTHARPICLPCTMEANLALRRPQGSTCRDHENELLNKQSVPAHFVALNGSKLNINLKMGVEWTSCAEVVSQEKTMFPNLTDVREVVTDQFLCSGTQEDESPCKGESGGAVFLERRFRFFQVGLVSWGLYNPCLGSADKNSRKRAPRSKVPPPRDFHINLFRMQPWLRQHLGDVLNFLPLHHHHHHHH
# T3: human C2 K457A (human, UniProt P06681 21-752)
# T3 sequence: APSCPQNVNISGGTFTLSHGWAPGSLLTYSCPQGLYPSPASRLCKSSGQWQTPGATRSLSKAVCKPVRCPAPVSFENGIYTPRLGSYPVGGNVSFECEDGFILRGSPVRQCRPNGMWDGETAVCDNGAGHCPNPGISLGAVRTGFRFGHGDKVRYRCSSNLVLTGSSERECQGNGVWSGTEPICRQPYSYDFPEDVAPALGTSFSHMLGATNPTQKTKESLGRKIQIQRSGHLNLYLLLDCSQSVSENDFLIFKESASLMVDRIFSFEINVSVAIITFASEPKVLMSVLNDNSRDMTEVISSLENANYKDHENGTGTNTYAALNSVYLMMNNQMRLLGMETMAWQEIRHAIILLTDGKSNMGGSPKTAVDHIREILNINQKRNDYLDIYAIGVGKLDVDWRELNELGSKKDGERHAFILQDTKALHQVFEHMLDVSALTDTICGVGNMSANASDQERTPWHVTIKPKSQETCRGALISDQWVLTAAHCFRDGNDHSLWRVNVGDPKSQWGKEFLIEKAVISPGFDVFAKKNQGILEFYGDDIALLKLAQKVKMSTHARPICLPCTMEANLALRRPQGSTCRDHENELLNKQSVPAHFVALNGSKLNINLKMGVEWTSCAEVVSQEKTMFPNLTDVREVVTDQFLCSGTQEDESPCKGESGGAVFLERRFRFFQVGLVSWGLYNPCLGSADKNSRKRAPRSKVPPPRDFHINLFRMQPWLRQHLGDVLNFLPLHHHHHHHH
# T4: human C2 E476A (human, UniProt P06681 21-752)
# T4 sequence: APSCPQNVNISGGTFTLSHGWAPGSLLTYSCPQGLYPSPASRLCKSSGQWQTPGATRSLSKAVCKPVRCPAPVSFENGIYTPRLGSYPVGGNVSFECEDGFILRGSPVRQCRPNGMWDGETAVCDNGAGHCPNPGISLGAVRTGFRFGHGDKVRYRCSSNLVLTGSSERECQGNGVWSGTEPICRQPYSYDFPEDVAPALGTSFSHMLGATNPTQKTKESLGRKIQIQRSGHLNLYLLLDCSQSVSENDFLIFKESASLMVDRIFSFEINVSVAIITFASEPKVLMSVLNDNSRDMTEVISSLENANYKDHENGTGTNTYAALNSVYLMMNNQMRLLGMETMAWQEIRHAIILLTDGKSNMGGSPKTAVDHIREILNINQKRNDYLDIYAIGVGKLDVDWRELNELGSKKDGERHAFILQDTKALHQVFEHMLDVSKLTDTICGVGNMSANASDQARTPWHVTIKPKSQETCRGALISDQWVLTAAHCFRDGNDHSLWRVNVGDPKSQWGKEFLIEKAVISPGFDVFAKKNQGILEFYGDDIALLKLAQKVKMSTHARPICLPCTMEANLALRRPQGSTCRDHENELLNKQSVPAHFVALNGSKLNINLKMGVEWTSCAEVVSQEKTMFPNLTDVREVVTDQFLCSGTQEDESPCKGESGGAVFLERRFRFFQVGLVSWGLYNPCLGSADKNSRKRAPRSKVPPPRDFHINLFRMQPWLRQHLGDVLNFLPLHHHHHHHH
# Columns and labels:
# Assay in all cases: SPR, KD relative to WT C2;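 further: biacore SPR at 37 °C, anti-C2 mAbs captured on anti-human IgG chips with alanine or serine point mutants of C2 as analyte, KD from 1:1 fit compared with wild-type C2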
# human C2 L279A = target: T1, human C2 L279A
# human C2 D454A = target: T2, human C2 D454A
# human C2 K457A = target: T3, human C2 K457A
# human C2 E476A = target: T4, human C2 E476A
binder,measurement,setting,value
"RF16-242 (antibody, human IgG4 S228P, lambda, V domains shown, pH-dependent anti-C2 antibody from a phage display library) VH: EVQLLQSGAEVKKPGESLKISCKGSGYSFTSYWIGWVRQMPGKGLEWMGIIYPGDSDTRYSPSFQGQVTISADKSISTAYLQWSSLKASDTAMYYCARRGHYGDYFDYWGQGTLVTVSS VL: SYELTQPPSVSVSPGQTARITCSGDALPKKYAYWYHQKSGQAPVLVIYEDRRRPSEIPERFSGSSSGTMATLTITGAQVEDEGVYFCYSRDRAGNQRVFGGGTQLTVLG",Fold diff,human C2 L279A,7 fold
same,Fold diff,human C2 D454A,5 fold
same,Fold diff,human C2 K457A,33 fold
same,Fold diff,human C2 E476A,2 fold

# From patent US20220332804A1 (CSL INNOVATION, published 2022)
